From the supplement of paper PMC7877785
± gives the uncertainty stated by the source.

Experiment: self-splicing fitness, log relative to wild type (ln ratio); higher = more splicing; Tetrahymena group I intron in knt gene, E. coli kanamycin selection, DiMSum; sequences stand for … in CUCUCU…GGAGGGAAAAGUUAUCAGGCAUGCACCUGGUAGCUAGUCUUUAAACCAAUAGAUUGCAUCGGUUUAAAAGGCAAGACCGUCAAAUUGCGGGAAAGGGGUCAACAGCCGUUCAGUACCAAGUCUCAGGGGAAACUUUGAGAUGGCCUUGCAAAGGGUAUGGUAAUAAGCUGACGGACAUGGUCCUAACCACGCAGCCAAGUCCUAAGUCAACAGAUCUUCUGUUGAUAUGGAUGCAGUUCACAGACUAAAUGUCGGUCGGGGAAGAUGUAUUCUUCUCAUAAGAUAUAGUCGGACCUCUCCUUAAUGGGAGCUAGCGGAUGAAGUGAUGCAACACUGGAGCCGCUGGGAACUAAUUUGUAUGCGAAAGUAUAUUGAUUAGUUUUGGAGUACUCGUGGUCG
Outline: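 Pooled colonies went to amplicon sequencing on an Illumina HiSeq 2500 after six replicate transformations. The plates were LB agar with 100 μg/mL carbenicillin, 50 μM IPTG and 0.2% rhamnose, with or without 25 μg/mL kanamycin, incubated overnight at 37°C or 30°C. The E. coli BL21(DE3) library had all eight P1ex-region intron nucleotides randomised, the intron placed in the knt kanamycin-resistance gene on pET-22b(+). DiMSum fitness is the error-weighted combination of replicate fold changes, kanamycin against none, normalised to wild type.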

Row | Sequence | self-splicing fitness (ln) (30 °C) | self-splicing fitness (ln) (37 °C)
1 | AAACAGCAAUAUUACGGUGA | -0.283 ± 0.093 | -0.496 ± 0.12
2 | GCGUAGCAAUAUUACGCCAC |  | -2.26 ± 0.29
3 | GAUUAGCAAUAUUACGGACA | -1.06 ± 0.13 | 0.179 ± 0.12
4 | GAUCAGCAAUAUUACGUCUC | -0.796 ± 0.1 | 0.0417 ± 0.13
5 | GGUCAGCAAUAUUACGUUAU | -0.97 ± 0.092 | -0.158 ± 0.1
6 | UUUUAGCAAUAUUACGCAAA | -1.98 ± 0.49 | -1.47 ± 0.36
7 | GUUUAGCAAUAUUACGUUCC | -0.783 ± 0.26 | 
8 | AUGGAGCAAUAUUACGUUCU | -2.64 ± 0.22 | -3.2 ± 0.4
9 | CUCUAGCAAUAUUACGAAAC | -2.61 ± 0.35 | 
10 | UGGCAGCAAUAUUACGGGAA | -2.17 ± 0.13 | -0.784 ± 0.1
11 | AUGUAGCAAUAUUACGCCAC | -3.49 ± 0.36 | 
12 | GCGAAGCAAUAUUACGCUGU | -1.5 ± 0.39 | 
13 | UGGAAGCAAUAUUACGUUAU | -2.23 ± 0.14 | -3.09 ± 0.2
14 | CAGUAGCAAUAUUACGUCGC |  | -2.7 ± 0.4
15 | ACUGAGCAAUAUUACGUCGG | -2.82 ± 0.16 | -2.47 ± 0.21
16 | AUAUAGCAAUAUUACGGAGC |  | -2.15 ± 0.46
17 | CCCAAGCAAUAUUACGAAAG | -3.49 ± 0.17 | -3.39 ± 0.31
18 | GCAGAGCAAUAUUACGCUAA |  | -2.95 ± 0.43
19 | UGUUAGCAAUAUUACGAGCC | -2.39 ± 0.22 | -0.493 ± 0.17
20 | CCCUAGCAAUAUUACGCCAC | -2.88 ± 0.27 | -1.6 ± 0.26
21 | UAUAAGCAAUAUUACGGGUA | -0.177 ± 0.1 | 0.401 ± 0.12
22 | AGCUAGCAAUAUUACGGCUU | -3.43 ± 0.21 | -2.62 ± 0.23
23 | UGCAAGCAAUAUUACGUUUC | -4.31 ± 0.26 | -3.24 ± 0.17
24 | AGGAAGCAAUAUUACGGAGG | -2.71 ± 0.34 | -2.28 ± 0.35
25 | UUGCAGCAAUAUUACGCGGU | -3.63 ± 0.35 | 
26 | GCUAAGCAAUAUUACGGACU | -1.66 ± 0.12 | -0.74 ± 0.14
27 | UCGCAGCAAUAUUACGCGCU | -1.23 ± 0.12 | -1.19 ± 0.21

Row | Sequence | self-splicing fitness (ln) (30 °C) | self-splicing fitness (ln) (37 °C)
28 | AUGUAGCAAUAUUACGUUUU | -2.64 ± 0.074 | -1.8 ± 0.1
29 | AAGGAGCAAUAUUACGCGCG | -2.19 ± 0.24 | -0.975 ± 0.23
30 | AUAGAGCAAUAUUACGUGUU | -3.73 ± 0.19 | -2.38 ± 0.18
31 | UGAGAGCAAUAUUACGUAGC |  | -2.96 ± 0.4
32 | GAAUAGCAAUAUUACGGUGG | -3.06 ± 0.24 | -1.08 ± 0.12
33 | UCUUAGCAAUAUUACGGCCU | -3.85 ± 0.46 | 
34 | UCUAAGCAAUAUUACGCGCC |  | -2.67 ± 0.38
35 | UUUGAGCAAUAUUACGGAGC | -2.02 ± 0.49 | 
36 | ACAGAGCAAUAUUACGCUAG | -3.28 ± 0.19 | -2.61 ± 0.18
37 | CUAUAGCAAUAUUACGUAAC | -1.97 ± 0.42 | 
38 | UUGCAGCAAUAUUACGACUA | 0.37 ± 0.1 | 0.519 ± 0.12
39 | AGUCAGCAAUAUUACGAGCA | -0.935 ± 0.12 | -0.0144 ± 0.14
40 | AACGAGCAAUAUUACGUUAU | -3.69 ± 0.16 | -1.52 ± 0.11
41 | ACUAAGCAAUAUUACGAUUU | -0.208 ± 0.062 | -0.0751 ± 0.09
42 | GGGGAGCAAUAUUACGCACU | -3.29 ± 0.36 | 
43 | AAUCAGCAAUAUUACGAACC | -0.433 ± 0.11 | 0.499 ± 0.18
44 | GAAGAGCAAUAUUACGGAAG | -2.81 ± 0.2 | -2.59 ± 0.44
45 | AUGCAGCAAUAUUACGGAGU | -1.78 ± 0.093 | -1.44 ± 0.11
46 | GAGAAGCAAUAUUACGGAGA | -3.8 ± 0.24 | -2.04 ± 0.28
47 | GACUAGCAAUAUUACGGCCC |  | 0.226 ± 0.4
48 | CCACAGCAAUAUUACGAGGG | -3.22 ± 0.12 | -3.11 ± 0.22
49 | UAGUAGCAAUAUUACGGCUU | -0.242 ± 0.11 | 0.187 ± 0.13
50 | GGGAAGCAAUAUUACGAUAA | -1.61 ± 0.11 | -0.785 ± 0.15
51 | AGCCAGCAAUAUUACGUAGG | -3.77 ± 0.2 | -3.33 ± 0.24
52 | AAUUAGCAAUAUUACGGGGG | -2.91 ± 0.15 | -2.9 ± 0.27
53 | GAACAGCAAUAUUACGACUA | -0.346 ± 0.085 | -0.46 ± 0.097
54 | AACCAGCAAUAUUACGAUGC | -1.49 ± 0.076 | -0.673 ± 0.082
